The record followed here is article PMC10423226, “Identification of a drug binding pocket in TMEM16F calcium-activated ion channel and lipid scramblase” (Nature Communications, 2023).

This series deals with the molecule itself. The series is described as follows: cryo-EM structure; TMEM16F in MSP2N2-SoyPC nanodiscs with PIP2 and 4 mM CaCl2, without drug or with 50 uM niclosamide or 100 uM 1PBC; no C2 symmetry imposed.

B1: TMEM16F (natural protein, UniProt Q6P9J9 1-911, looked up)
chain: MQMMTRKVLLNMELEEDDDEDGDIVLENFDQTIVCPTFGSLENQQDFRTPEFEEFNGKPDSLFFTDGQRRIDFILVYEDESKKENNKKGTNEKQKRKRQAYESNLICHGLQLEATRSVSDDKLVFVKVHAPWEVLCTYAEIMHIKLPLKPNDLKTRSPFGNLNWFTKVLRVNESVIKPEQEFFTAPFEKSRMNDFYILDRDSFFNPATRSRIVYFILSRVKYQVMNNVNKFGINRLVSSGIYKAAFPLHDCRFNYESEDISCPSERYLLYREWAHPRSIYKKQPLDLIRKYYGEKIGIYFAWLGYYTQMLLLAAVVGVACFLYGYLDQDNCTWSKEVCDPDIGGQILMCPQCDRLCPFWRLNITCESSKKLCIFDSFGTLIFAVFMGVWVTLFLEFWKRRQAELEYEWDTVELQQEEQARPEYEAQCNHVVINEITQEEERIPFTTCGKCIRVTLCASAVFFWILLIIASVIGIIVYRLSVFIVFSTTLPKNPNGTDPIQKYLTPQMATSITASIISFIIIMILNTIYEKVAIMITNFELPRTQTDYENSLTMKMFLFQFVNYYSSCFYIAFFKGKFVGYPGDPVYLLGKYRSEECDPGGCLLELTTQLTIIMGGKAIWNNIQEVLLPWVMNLIGRYKRVSGSEKITPRWEQDYHLQPMGKLGLFYEYLEMIIQFGFVTLFVASFPLAPLLALVNNILEIRVDAWKLTTQFRRMVPEKAQDIGAWQPIMQGIAILAVVTNAMIIAFTSDMIPRLVYYWSFSIPPYGDHTYYTMDGYINNTLSVFNITDFKNTDKENPYIGLGNYTLCRYRDFRNPPGHPQEYKHNIYYWHVIAAKLAFIIVMEHIIYSVKFFISYAIPDVSKITKSKIKREKYLTQKLLHESHLKDLTKNMGIIAERIGGTVDNSVRPKLE
modifications: glycans on the extracellular loops
notes: Sample in lipid nanodiscs (MSP2N2, SoyPC) with PIP2 and 4 mM CaCl2; also called mTMEM16F; TMEM16F dimer; source: HEK293s cells, extracted and purified in DDM/CHS, reconstituted in MSP2N2-SoyPC nanodiscs, FPLC
One may read the stoichiometry N as a count of units in the complex or per binding partner. For B1, the “stoichiometry N” value stood at 2.
